This note sets out measurements from patent publication CN116284407A (SUNSHINE GUOJIAN PHARMACEUTICAL SHANGHAI CO LTD, dated 2023).

The target of one experiment is T1, 人GUCY2C-Fc蛋白 (human, UniProt P25092 24-430).
T1 construct: extracellular domain; not shown: human IgG1 Fc at the C-terminus
In words: indirect ELISA, GUCY2C-Fc coated at 1 ug/mL, HRP anti-mouse IgG. (In general: In an ELISA, binding on a coated surface is turned into a signal by an enzyme label.)

The next experiment has as its target T2, 人GUCY2C-His蛋白 (human, UniProt P25092 24-430).
T2 construct: extracellular domain
In words: ELISA, GUCY2C-His coated at 0.1 ug/mL, HRP anti-mouse secondary (Table 3).

Experiment [1] concerns the target T3, 人GUCY2C on cells (人结肠癌细胞CW2; GUCY2C过表达肿瘤细胞CW2-GCC#1) (human, UniProt P25092 24-1073).
T3 construct: whole, on cells; the gene put into CW2-GCC#1 is only called GUCY2C
In words: flow cytometry on CW2 human colon cancer cells, PE anti-mouse secondary.

As usually defined, the EC50 is the concentration that produces a half-maximal response. A higher EC50 goes with weaker potency.

T3 sequence (P25092 24-1073): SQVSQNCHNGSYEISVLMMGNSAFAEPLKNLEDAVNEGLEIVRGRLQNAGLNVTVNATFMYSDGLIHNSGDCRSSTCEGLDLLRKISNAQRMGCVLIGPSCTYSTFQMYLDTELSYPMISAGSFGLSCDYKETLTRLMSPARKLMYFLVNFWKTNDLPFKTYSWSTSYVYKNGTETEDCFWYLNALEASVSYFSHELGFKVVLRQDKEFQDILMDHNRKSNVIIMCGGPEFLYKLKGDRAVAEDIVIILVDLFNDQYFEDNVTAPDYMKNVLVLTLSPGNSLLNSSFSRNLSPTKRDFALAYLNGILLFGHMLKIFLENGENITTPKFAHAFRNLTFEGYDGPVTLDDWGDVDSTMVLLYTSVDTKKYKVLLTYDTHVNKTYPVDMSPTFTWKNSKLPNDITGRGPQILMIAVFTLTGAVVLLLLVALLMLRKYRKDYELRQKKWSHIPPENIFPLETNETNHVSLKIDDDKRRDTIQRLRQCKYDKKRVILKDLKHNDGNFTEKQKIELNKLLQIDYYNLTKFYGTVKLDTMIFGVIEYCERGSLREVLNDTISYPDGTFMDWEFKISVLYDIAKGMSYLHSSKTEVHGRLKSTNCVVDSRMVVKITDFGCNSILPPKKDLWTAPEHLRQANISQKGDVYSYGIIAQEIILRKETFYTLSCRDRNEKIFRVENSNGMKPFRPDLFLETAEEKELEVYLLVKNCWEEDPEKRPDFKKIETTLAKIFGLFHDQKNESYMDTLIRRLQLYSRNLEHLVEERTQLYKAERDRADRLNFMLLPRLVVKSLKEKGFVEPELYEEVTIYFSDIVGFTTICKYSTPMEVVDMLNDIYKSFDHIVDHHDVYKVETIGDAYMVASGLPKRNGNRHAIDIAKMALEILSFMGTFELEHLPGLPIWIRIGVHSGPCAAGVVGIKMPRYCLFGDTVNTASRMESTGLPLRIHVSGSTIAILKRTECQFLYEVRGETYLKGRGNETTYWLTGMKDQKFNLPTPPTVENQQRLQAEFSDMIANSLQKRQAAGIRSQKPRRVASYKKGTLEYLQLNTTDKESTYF
T2 sequence (P25092 other isoform, or with tags, fused parts or gaps): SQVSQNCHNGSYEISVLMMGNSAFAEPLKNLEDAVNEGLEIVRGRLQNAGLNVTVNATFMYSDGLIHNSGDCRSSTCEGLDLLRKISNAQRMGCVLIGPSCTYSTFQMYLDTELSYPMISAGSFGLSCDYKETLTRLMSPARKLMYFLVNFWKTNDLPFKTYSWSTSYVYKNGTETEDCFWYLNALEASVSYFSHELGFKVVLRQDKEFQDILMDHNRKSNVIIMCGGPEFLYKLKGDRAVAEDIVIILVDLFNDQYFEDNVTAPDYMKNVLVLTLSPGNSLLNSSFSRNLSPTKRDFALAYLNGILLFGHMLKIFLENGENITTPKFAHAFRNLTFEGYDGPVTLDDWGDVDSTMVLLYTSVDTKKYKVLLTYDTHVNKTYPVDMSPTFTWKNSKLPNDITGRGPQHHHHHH
T1 sequence (P25092 24-430): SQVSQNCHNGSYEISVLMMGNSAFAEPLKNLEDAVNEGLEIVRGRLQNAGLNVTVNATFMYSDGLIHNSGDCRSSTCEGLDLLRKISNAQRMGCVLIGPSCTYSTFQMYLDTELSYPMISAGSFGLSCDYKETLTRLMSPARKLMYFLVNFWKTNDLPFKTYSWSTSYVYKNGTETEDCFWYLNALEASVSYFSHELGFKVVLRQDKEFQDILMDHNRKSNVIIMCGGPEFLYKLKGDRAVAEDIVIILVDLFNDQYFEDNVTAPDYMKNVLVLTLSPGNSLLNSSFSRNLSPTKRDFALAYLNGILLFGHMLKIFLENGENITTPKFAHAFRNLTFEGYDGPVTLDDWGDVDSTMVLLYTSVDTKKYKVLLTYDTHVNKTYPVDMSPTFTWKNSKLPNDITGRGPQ

B1: 55G7A7H2 (antibody, V domains shown)
VH: QVQLQQSGADLARPGASVKMSCKASGYTFTSYTMHWVKQRPGQGLEWIGYINPSSGYTNYNQKFQDKATLTADKSSSTAYMQLSSLTSEDSAVYYCARLGRIGVYWGQGTTLTVSS
VL: QIVLSQSPAILSAFPGEKVTLTCRASSSVSFIHWYQQKPGSSPKPWIYATSNLASGVPDRFSGSGSGTSFSFTISRVEAEDAATYYCQQWSSNPWTFGGGTKLEIK
As for B1, the EC50 with 人GUCY2C-Fc蛋白 was 0.0215 µg/mL; in the experiment with 人GUCY2C-His蛋白, 0.12 nM; in experiment [1] it was 6.27 µg/mL.
